US20100203041A1 (Genentech, published 2010)

T1: recombinant human EGFL7 (human, UniProt Q9UHF1 24-273, limits assumed)
T1 construct: Produced in E. coli and His6/poly-His-tagged; also called hEGFL7; poly-His-tagged EGFL7
T1 sequence (looked up): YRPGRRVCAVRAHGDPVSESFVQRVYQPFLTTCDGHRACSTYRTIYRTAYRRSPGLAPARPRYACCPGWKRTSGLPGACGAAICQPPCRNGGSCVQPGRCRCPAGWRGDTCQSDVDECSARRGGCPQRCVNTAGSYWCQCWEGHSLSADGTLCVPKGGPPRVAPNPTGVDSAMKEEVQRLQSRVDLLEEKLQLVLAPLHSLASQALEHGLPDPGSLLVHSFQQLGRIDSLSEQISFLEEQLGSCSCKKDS

T2: recombinant mouse EGFL7 (mouse, UniProt Q9QXT5 22-275, limits assumed)
T2 construct: also called mEGFL7; poly-His-tagged EGFL7
T2 sequence (looked up): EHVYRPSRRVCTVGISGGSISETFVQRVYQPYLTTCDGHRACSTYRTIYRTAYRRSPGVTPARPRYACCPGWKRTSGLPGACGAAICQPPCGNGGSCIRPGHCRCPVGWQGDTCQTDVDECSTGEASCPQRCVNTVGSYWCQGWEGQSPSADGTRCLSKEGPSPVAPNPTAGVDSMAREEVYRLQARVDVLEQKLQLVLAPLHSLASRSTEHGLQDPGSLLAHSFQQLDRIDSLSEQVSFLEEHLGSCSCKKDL

B1: anti-EGFL7 mumab 4F11.1.8 (antibody, IgG2b, V domains shown)
VH: QIQLVQSGPELKKPGETVKISCKASGHTFTTYGMSWVKQAPGKGLKWMGWINTHSGVPTYADDFKGRFAFSLETSASTAHLQINNLKNEDTATYFCARLGSSAVDYWGQGTTVTVSS
VL: DIVLTQSPASLAVSLGQRATISCKASQSVDYDGDSYMSWYQQKPGQPPKLLIYGASNLESGIPARFSGSGSGTDFTLNIHPVEEEDAATYYCQQNNEDPYTFGGGTKVEIKR
notes: ATCC PTA-7343

Columns and labels:
recombinant human EGFL7 = molecular target: T1, recombinant human EGFL7; assay: SPR, BIAcore 3000, room temperature; antibody on CM5 chip, poly-His-tagged EGFL7 injected; 1:1 global fit; Mab stock in 50 mM Tris/125 mM NaCl
Description: (§1) Binding affinity of the Mabs for both human and mouse EGFL7 was determined by surface plasmon resonance using Pharmacia BIAcore® 3000 (BIAcore AB, Uppsala, Sweden) at room temperature (see, e.g., Morton et al., Meth. Enzymol. 295:268-94 (1998)). Anti-EGFL7 antibodies were immobilized to the sensor chip (CM5) through primary amine groups. The carboxymethylated sensor chip surface matrix was activated by injecting 20 μl of a mixture of 0.025 M N-hydroxysuccinimide and 0.1 M N-ethyl-N′(dimethylaminopropyl) carbodiimide at 5 μl/min 5-10 μl of 10 μg/ml solution of […] in 10 mM sodium acetate, pH 4.5, were injected at 5 μl/min After coupling, unoccupied sites on the chip were blocked by injecting 20 μl of 1M ethanolamine, pH 8.5. The running buffer was PBS containing 0.05% polysorbate 20. For kinetic measurements, two-fold serial dilutions of poly-His-tagged EGFL7 in running buffer were injected over the flow cells for 3 minutes at a flow rate of 30 μl/min and the bound polyhis tagged EGFL7 was allow to dissociate for 20 minutes. The binding surface was regenerated by injecting 20 μl of 10 mM glycine.HCl (pH 1.5). […] There was no significant non-specific binding of poly-His-tagged EGFL7 to flow cell one. For calculating apparent binding affinity, data were analyzed using a 1:1 binding model using global fitting. […]

recombinant mouse EGFL7 = molecular target: T2, recombinant mouse EGFL7; assay: as above
Description: as §1

[1] = molecular target: B1; assay: peptide competition at 10-fold molar excess with EGFL7 protein; immunoprecipitation and SDS-PAGE

Binder | Kd (recombinant human EGFL7) [nM] | Kd (recombinant mouse EGFL7) [nM] | binding result [1]
B1 | 0.473 | 0.756 | –
RPRYACCPGWKRT [polypeptide p2] | – | – | binds
